In the data set the target is T1, E2A-PBX1 ΔPBC-B (MBP fusion) (UniProt P15923 1-483+P40424:232-430, internal_change).
T1 sequence: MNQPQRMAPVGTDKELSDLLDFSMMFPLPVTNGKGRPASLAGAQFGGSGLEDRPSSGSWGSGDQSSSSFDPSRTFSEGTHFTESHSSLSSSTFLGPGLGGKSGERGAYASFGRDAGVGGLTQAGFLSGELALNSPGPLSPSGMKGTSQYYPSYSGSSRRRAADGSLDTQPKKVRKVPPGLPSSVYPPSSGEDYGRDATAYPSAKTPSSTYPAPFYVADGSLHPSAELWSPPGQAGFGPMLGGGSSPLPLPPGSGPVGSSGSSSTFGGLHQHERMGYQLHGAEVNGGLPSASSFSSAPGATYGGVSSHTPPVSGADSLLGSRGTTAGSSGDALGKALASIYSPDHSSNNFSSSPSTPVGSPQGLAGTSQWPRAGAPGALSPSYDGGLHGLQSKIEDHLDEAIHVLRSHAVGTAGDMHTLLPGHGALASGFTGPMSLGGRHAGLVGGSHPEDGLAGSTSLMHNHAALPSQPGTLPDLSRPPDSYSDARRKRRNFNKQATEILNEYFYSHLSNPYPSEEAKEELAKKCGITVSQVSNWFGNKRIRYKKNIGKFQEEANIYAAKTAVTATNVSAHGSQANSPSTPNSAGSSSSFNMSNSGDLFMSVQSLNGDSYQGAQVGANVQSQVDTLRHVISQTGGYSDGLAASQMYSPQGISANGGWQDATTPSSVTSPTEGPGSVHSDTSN
Briefly: EMSA; LightShift Chemiluminescent EMSA kit (manufacturer's conditions), room temperature 20 min, 5% TBE gel in 0.5X TBE; salt and pH not stated. The conditions noted are these: protein: recombinant; tags: MBP; label: biotin (end label); blunt. Background: Mobility shift assays separate free from complexed probe on a gel.

B1: PBX1 consensus site oligonucleotide (dsDNA)
DNA 1: TGATTGATTGATTGAT
DNA 2: ATCAATCAATCAATCA
Take B1: the binding result is recorded as “no binding”.

(Values after paper PMC6426973, “Oligomeric self-association contributes to E2A-PBX1-mediated oncogenesis”.)
